Source: patent US20260022175A1 (Chugai, published 2026)

What was measured:
[1] = biological target: T1, hCTLA4-His-BAP (human CTLA4 extracellular region with C-terminal His-tag and BAP-tag) (human, biotin on the BAP-tag); experiment: SPR 37C, ATP 10 µM; ATP 10 µM
T1 construct: also called hCTLA4-His-Biotin

[2] = biological target: T1, hCTLA4-His-BAP (human CTLA4 …); experiment: SPR 37C, hCTLA4 1000 nM, no ATP; no ATP; binding amount at 1000 nM hCTLA4
[3] = biological target: T1, hCTLA4-His-BAP (human CTLA4 …); experiment: SPR 37C, ATP 100 µM; ATP 100 µM
[4] = biological target: T1, hCTLA4-His-BAP (human CTLA4 …); experiment: SPR 37C, hCTLA4 1000 nM, ATP 1 µM; ATP 1 µM; binding amount at 1000 nM hCTLA4
[5] = biological target: T1, hCTLA4-His-BAP (human CTLA4 …); experiment: SPR 37C, hCTLA4 1000 nM, ATP 100 µM; ATP 100 µM; binding amount at 1000 nM hCTLA4
[6] = biological target: T1, hCTLA4-His-BAP (human CTLA4 …); experiment: SPR 37C, hCTLA4 1000 nM, ATP 10 µM; ATP 10 µM; binding amount at 1000 nM hCTLA4
[7] = biological target: T2, human C1q protein (Calbiochem) (human, UniProt P02745 23-245; P02746 28-253; P02747 29-245); experiment: ELISA, antibody on the plate, hC1q 3 µg/mL
T2 construct: bought; also called hC1q
T2 sequence (P02745 23-245 limits assumed, chain 1 of 3): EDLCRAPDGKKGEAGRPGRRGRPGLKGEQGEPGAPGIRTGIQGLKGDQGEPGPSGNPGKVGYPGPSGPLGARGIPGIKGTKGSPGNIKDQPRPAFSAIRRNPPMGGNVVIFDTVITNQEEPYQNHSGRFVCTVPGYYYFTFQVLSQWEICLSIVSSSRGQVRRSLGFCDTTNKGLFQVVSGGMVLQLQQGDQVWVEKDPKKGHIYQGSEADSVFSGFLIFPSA
T2 sequence (P02746 28-253 limits assumed, chain 2 of 3): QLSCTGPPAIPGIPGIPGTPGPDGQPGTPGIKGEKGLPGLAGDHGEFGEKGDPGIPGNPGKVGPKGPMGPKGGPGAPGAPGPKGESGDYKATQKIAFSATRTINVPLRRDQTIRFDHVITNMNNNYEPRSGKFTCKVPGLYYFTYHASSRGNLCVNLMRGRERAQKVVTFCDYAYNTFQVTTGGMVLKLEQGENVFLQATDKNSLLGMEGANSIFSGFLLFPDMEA
T2 sequence (P02747 29-245 limits assumed, chain 3 of 3): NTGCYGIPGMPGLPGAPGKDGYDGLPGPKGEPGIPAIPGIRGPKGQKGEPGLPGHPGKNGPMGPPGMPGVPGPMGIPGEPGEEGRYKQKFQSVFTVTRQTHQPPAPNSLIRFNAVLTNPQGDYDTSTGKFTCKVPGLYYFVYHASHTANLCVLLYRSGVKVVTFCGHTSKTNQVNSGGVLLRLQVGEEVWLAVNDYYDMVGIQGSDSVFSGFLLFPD

T1 sequence (chain, as listed by the source limits assumed): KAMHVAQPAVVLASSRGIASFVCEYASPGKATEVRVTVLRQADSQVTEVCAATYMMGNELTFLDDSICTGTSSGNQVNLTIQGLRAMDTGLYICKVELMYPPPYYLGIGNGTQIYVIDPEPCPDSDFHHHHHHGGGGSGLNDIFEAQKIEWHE

B1: 04H1077-G1m/04L1041-lam1 (antibody, human IgG1, lambda, V domains shown)
VH: EVQLVESGGDLVKPGGGLRLSCAASGFTFSSRTMNWVRQAPGKGLEWVSSISTRSGYIYYAESVKGRFTISRDNAKNSLYLQMNSLRAEDTAVYYCARYGKREDMLWVFDYWGQGTLVTVSS
VL: QSALTQPPSASGSPGQTVTISCDGPSTDVGDYNYVHWYQQHPGKAPKLMIYFTSKKPSGVPDRFSGSKSGNTASLTVSGLQAEDEADYFCSTYAAPLGPMFGGGTKLTVLG
Kd [1]: 730 nM
Binding to Human CTLA4 [2]: 0.006 per unit amount of antibody
Kd [3]: 140 nM
Binding to Human CTLA4 [4]: 0.023 per unit amount of antibody
Binding to Human CTLA4 [5]: 0.172 per unit amount of antibody
Binding to Human CTLA4 [6]: 0.094 per unit amount of antibody

B2: 04H1208-G1m/04L1086-lam1 (antibody, human IgG1, lambda, V domains shown)
VH: EVQLVESGGGLVKPGGSLRLSCAASGFTFSSKTMNWVRQAPGKGLEWVSSISTRSGYIYYARSVKGRFTISRDNAKNSLYLQMNSLRAEDTAVYYCARYGKREDMLWVFDYWGQGTLVTVSS
VL: QSALTQPPSASGSPGQTVTISCDGPSTGVGDYNYVHWYQQHPGKAPKLMIYFTSKKPSGVPDRFSGSKSGNTASLTVSGLQAEDEADYFCQTYAAPLGPMFGGGTKLTVLG
Kd [1]: 450 nM
Binding to Human CTLA4 [2]: 0.005 per unit amount of antibody
Kd [3]: 74 nM
Binding to Human CTLA4 [4]: 0.03 per unit amount of antibody
Binding to Human CTLA4 [5]: 0.17 per unit amount of antibody
Binding to Human CTLA4 [6]: 0.108 per unit amount of antibody

B3: 04H1077-G1m/04L1086-lam1 (antibody, human IgG1, lambda, V domains shown)
VH: EVQLVESGGDLVKPGGGLRLSCAASGFTFSSRTMNWVRQAPGKGLEWVSSISTRSGYIYYAESVKGRFTISRDNAKNSLYLQMNSLRAEDTAVYYCARYGKREDMLWVFDYWGQGTLVTVSS
VL: QSALTQPPSASGSPGQTVTISCDGPSTGVGDYNYVHWYQQHPGKAPKLMIYFTSKKPSGVPDRFSGSKSGNTASLTVSGLQAEDEADYFCQTYAAPLGPMFGGGTKLTVLG
Kd [1]: 690 nM
Binding to Human CTLA4 [2]: 0.01 per unit amount of antibody
Kd [3]: 110 nM
Binding to Human CTLA4 [4]: 0.031 per unit amount of antibody
Binding to Human CTLA4 [5]: 0.181 per unit amount of antibody
Binding to Human CTLA4 [6]: 0.106 per unit amount of antibody

B4: 04H1077-G1m/04L1067-lam1 (antibody, human IgG1, lambda, V domains shown)
VH: EVQLVESGGDLVKPGGGLRLSCAASGFTFSSRTMNWVRQAPGKGLEWVSSISTRSGYIYYAESVKGRFTISRDNAKNSLYLQMNSLRAEDTAVYYCARYGKREDMLWVFDYWGQGTLVTVSS
VL: QSALTQPPSASGSPGQTVTISCDGPSTGVGDYNYVHWYQQHPGKAPKLMIYFTSKKPSGVPDRFSGSKSGNTASLTVSGLQAEDEADYFCSTYAAPLGPMFGGGTKLTVLG
Kd [1]: 400 nM
Binding to Human CTLA4 [2]: 0.012 per unit amount of antibody
Kd [3]: 76 nM
Binding to Human CTLA4 [4]: 0.041 per unit amount of antibody
Binding to Human CTLA4 [5]: 0.192 per unit amount of antibody
Binding to Human CTLA4 [6]: 0.131 per unit amount of antibody

B5: 04H1207-G1m/04L1086-lam1 (antibody, human IgG1, lambda, V domains shown)
VH: EVQLVESGGGLVKPGGSLRLSCAASGFTFSSKTMNWVRQAPGKGLEWVSSISTRSGYIYYAESVKGRFTISRDNAKNSLYLQMNSLRAEDTAVYYCARYGKREDMLWVFDYWGQGTLVTVSS
VL: QSALTQPPSASGSPGQTVTISCDGPSTGVGDYNYVHWYQQHPGKAPKLMIYFTSKKPSGVPDRFSGSKSGNTASLTVSGLQAEDEADYFCQTYAAPLGPMFGGGTKLTVLG
Kd [1]: 330 nM
Binding to Human CTLA4 [2]: 0.013 per unit amount of antibody
Kd [3]: 59 nM
Binding to Human CTLA4 [4]: 0.047 per unit amount of antibody
Binding to Human CTLA4 [5]: 0.196 per unit amount of antibody
Binding to Human CTLA4 [6]: 0.137 per unit amount of antibody

B6: H240-Kn462/L73-k0//H240-Hl441/L73-k0 (antibody)
heavy 1: QDQLVQSGAEVKKPGASVKVSCKASGFNIKDTYIQWVRQAPGQGLEWMGRIDPLRKQTKYREKFEGRVTITADTSTNTAYMELSSLRSEDTAVYYCVRSGREFDYWGQGTLVTVSSASTKGPSVFPLAPSSKSTSGGTAALGCLVKDYFPEPVTVSWNSGALTSGVHTFPAVLQSSGLYSLSSVVTVPSSSLGTQTYICNVNHKPSNTKVDKKVEPKSCDKTHTCPPCPAPEFQWGPMVFLFPPKPKDVLMISRTPEVTCVVVDVSDEEPEVKFNWYVDGVEVHNAKTKPREEQYNATYRVVSVLPVLHQDWLNGKEYKCKVSNDALPAPIEKTISKAKGQPREPQVCTLPPSRDELTKNQVSLWCLVKGFYPSDIAVEWESNGQPENNYKTTPPVLDSDGSFFLYSKLTVDKSRWQQGNVFSCSVMHEALHNHYTQKSLSLSP
heavy 2: QDQLVQSGAEVKKPGASVKVSCKASGFNIKDTYIQWVRQAPGQGLEWMGRIDPLRKQTKYREKFEGRVTITADTSTNTAYMELSSLRSEDTAVYYCVRSGREFDYWGQGTLVTVSSASTKGPSVFPLAPSSKSTSGGTAALGCLVKDYFPEPVTVSWNSGALTSGVHTFPAVLQSSGLYSLSSVVTVPSSSLGTQTYICNVNHKPSNTKVDKKVEPKSCDKTHTCPPCPAPELLAGPSVFLFPPKPKDVLMISRTPEVTCVVVDVSHEEPEVKFNWYVDGVEVHNAKTKPREEQYNATYRVVSVLPVLHQDWLNGKEYKCKVSNDALPAPIEETISKAKGQPREPQVYTLPPSRCELTKNQVSLSCAVKGFYPSDIAVEWESNGQPENNYKTTPPVLDSDGSFFLVSKLTVDKSRWQQGNVFSCSVMHEALHNHYTQKSLSLSP
light: DIQMTQSPSSLSASVGDRVTITCRASQDIHKYIAWYQQKPGQAPRLLIQYTSTLQPGVPSRFSGSGSGTDYTFTISSLQPEDIATYYCLQYEQLRTFGGGTKVEIKRTVAAPSVFIFPPSDEQLKSGTASVVCLLNNFYPREAKVQWKVDNALQSGNSQESVTEQDSKDSTYSLSSTLTLSKADYEKHKVYACEVTHQGLSSPVTKSFNRGEC
notes: also called EGL-ART5; ART5; copies: 1 + 1 + 2
binding result [7]: binds

B7: H240-Kn443/L73-k0//H240-Hl408/L73-k0 (antibody)
heavy 1: QDQLVQSGAEVKKPGASVKVSCKASGFNIKDTYIQWVRQAPGQGLEWMGRIDPLRKQTKYREKFEGRVTITADTSTNTAYMELSSLRSEDTAVYYCVRSGREFDYWGQGTLVTVSSASTKGPSVFPLAPSSKSTSGGTAALGCLVKDYFPEPVTVSWNSGALTSGVHTFPAVLQSSGLYSLSSVVTVPSSSLGTQTYICNVNHKPSNTKVDKKVEPKSCDKTHTCPPCPAPEFQWGPMVFLFPPKPKDTLMISRTPEVTCVVVDVSDEEPEVKFNWYVDGVEVHNAKTKPREEQYNATYRVVSVLTVLHQDWLNGKEYKCKVSNDALPAPIEKTISKAKGQPREPQVCTLPPSRDELTKNQVSLWCLVKGFYPSDIAVEWESNGQPENNYKTTPPVLDSDGSFFLYSKLTVDKSRWQQGNVFSCSVMHEALHNHYTQKSLSLSP
heavy 2: QDQLVQSGAEVKKPGASVKVSCKASGFNIKDTYIQWVRQAPGQGLEWMGRIDPLRKQTKYREKFEGRVTITADTSTNTAYMELSSLRSEDTAVYYCVRSGREFDYWGQGTLVTVSSASTKGPSVFPLAPSSKSTSGGTAALGCLVKDYFPEPVTVSWNSGALTSGVHTFPAVLQSSGLYSLSSVVTVPSSSLGTQTYICNVNHKPSNTKVDKKVEPKSCDKTHTCPPCPAPELLAGPSVFLFPPKPKDTLMISRTPEVTCVVVDVSHEEPEVKFNWYVDGVEVHNAKTKPREEQYNATYRVVSVLTVLHQDWLNGKEYKCKVSNDALPAPIEETISKAKGQPREPQVYTLPPSRCELTKNQVSLSCAVKGFYPSDIAVEWESNGQPENNYKTTPPVLDSDGSFFLVSKLTVDKSRWQQGNVFSCSVMHEALHNHYTQKSLSLSP
light: DIQMTQSPSSLSASVGDRVTITCRASQDIHKYIAWYQQKPGQAPRLLIQYTSTLQPGVPSRFSGSGSGTDYTFTISSLQPEDIATYYCLQYEQLRTFGGGTKVEIKRTVAAPSVFIFPPSDEQLKSGTASVVCLLNNFYPREAKVQWKVDNALQSGNSQESVTEQDSKDSTYSLSSTLTLSKADYEKHKVYACEVTHQGLSSPVTKSFNRGEC
notes: also called EGL-ART3; ART3; copies: 1 + 1 + 2
binding result [7]: binds
